Earlier results as cited in PMC2903477.

Molecular target: TrkB (Homo sapiens) (UniProt Q16620)
Chain of UniProt Q16620 (Q16620 32-430): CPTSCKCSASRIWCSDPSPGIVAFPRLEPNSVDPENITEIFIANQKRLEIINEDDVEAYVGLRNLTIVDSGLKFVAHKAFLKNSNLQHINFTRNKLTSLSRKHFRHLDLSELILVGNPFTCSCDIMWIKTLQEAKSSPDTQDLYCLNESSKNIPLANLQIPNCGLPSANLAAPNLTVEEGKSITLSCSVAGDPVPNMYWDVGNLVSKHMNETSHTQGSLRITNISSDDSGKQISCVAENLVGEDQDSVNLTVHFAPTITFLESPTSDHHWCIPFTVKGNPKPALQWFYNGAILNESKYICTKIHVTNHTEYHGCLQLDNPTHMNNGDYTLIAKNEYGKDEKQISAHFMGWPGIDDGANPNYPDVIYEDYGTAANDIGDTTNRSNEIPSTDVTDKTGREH

Kd: 0.1 nM
Substance: BDNF (from UniProt P23560)
